Values quoted from earlier work, collected in article PMC10412679.

Molecular target: CD47 (Homo sapiens) (UniProt Q08722)

- Kd: 8 nM
Substance: magrolimab
